Test results: publication PMC5633918, “The coproporphyrin ferrochelatase of Staphylococcus aureus: mechanistic insights into a regulatory iron-binding site” (Biochemical Journal, 2017)

Substrate: CC1=C(CCC(=O)O)c2cc3nc(cc4[nH]c(cc5[nH]c(cc1n2)c(C)c5CCC(=O)O)c(CCC(=O)O)c4C)C(CCC(=O)O)=C3C
Experiment: purified protein
Format: biochemical, Staphylococcus aureus
Details: 0.7 µM Fe2+ (sub-inhibitory), 0.1 M Tris-HCl pH 8.1, 0.5% sodium cholate, 0.5% Tween 20, 1 mM beta-mercaptoethanol, 30 °C

B1: S. aureus CpfC (coproporphyrin ferrochelatase) (Staphylococcus aureus subsp. aureus USA300) (protein)
chain: MTKKMGLLVMAYGTPYKESDIEPYYTDIRHGKRPSEEELQDLKDRYEFIGGLSPLAGTTDDQADALVSALNKAYADVEFKLYLGLKHISPFIEDAVEQMHNDGITEAITVVLAPHYSSFSVGSYDKRADEEAAKYGIQLTHVKHYYEQPKFIEYWTNKVNETLAQIPEEEHKDTVLVVSAHSLPKGLIEKNNDPYPQELEHTALLIKEQSNIEHIAIGWQSEGNTGTPWLGPDVQDLTRDLYEKHQYKNFIYTPVGFVCEHLEVLYDNDYECKVVCDDIGANYYRPKMPNTHPLFIGAIVDEIKSIF
notes: tag removal not mentioned
- Km: 1.5 ± 0.2 µM
- kcat: 0.175 ± 0.0067 s⁻¹
